Measurements: patent WO2021032966A1 (dated 2021)

Key:
[1] = biological target: T1, Ab42 species in hippocampus protein extracts of J20 mice (PDGF-APPSw,Ind) (human); assay: indirect ELISA on hippocampus protein extracts of J20 mice, normalised to wild-type mice
T1 construct: Target present in crude hippocampus extracts coated on ELISA wells; 6E10 detects total Ab in the same extracts; also called Ab42 oligomers formed in vivo in a mouse model of AD

[2] = biological target: T2, Zn2+-stabilised Ab40 oligomers (UniProt P05067 672-711); assay: ITC, fit of double subtracted integrated peaks
T2 construct: domain: Ab1-40; Oligomers made by incubating Ab40 with ZnCl2 for 20 hours at 20 C

[3] = biological target: T3, human Ab42 species in protein extracts of GMC101 C. elegans worms (human); assay: indirect ELISA on C. elegans protein extracts, N2 worms as reference
T3 construct: Target present in crude worm protein extracts coated on ELISA wells; also called NIAD-4 negative, toxic Ab42 species; Ab42 oligomers formed in vivo

[4] = biological target: T2, Zn2+-stabilised Ab40 oligomers; assay: ITC, DesAb-O injected into Ab40 oligomers, 25 C

T2 sequence (P05067 671-711 limits assumed): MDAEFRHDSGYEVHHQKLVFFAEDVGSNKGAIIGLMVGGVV
T3 sequence (peptide, as listed by the source): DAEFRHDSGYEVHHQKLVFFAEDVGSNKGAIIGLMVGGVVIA
T1 sequence (peptide, as listed by the source): as above

binding result [1]: binds
DH (ITC fit) [2]: -12.7 kcal/mol
Kd [2]: 440 nM
binding result [3]: binds
Kd [4]: ~500 nM
B1: DesAb-O (VHH)
VHH: EVQLVESGGGLVQPGGSLRLSCAASGFNIKDTYIGWVRRAPGKGEEWVASIYPTNGYTRYADSVKGRFTISADTSKNTAYLQMNSLRAEDTAVYYCAAGSESAFGRAEEEAAAWGQGTLVTVSS
notes: Rationally designed single-domain antibody (VH domain), expressed in E. coli, purified by Ni2+ chromatography and detected with an anti-6X His tag antibody; also called DesAb-0; Des-Ab-0
